Assay: yeast display, Sf9 membrane polyspecificity reagent, FACS + sequencing; frameworks hold sequencing errors
Procedure, shortened: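 After 36–48 hours of galactose induction, yeast (Saccharomyces cerevisiae BJ5465) displaying a synthetic nanobody library were stained at 4 °C for 1 hour with 10% biotinylated, detergent-solubilized Sf9 membrane reagent. Streptavidin microbeads enriched the stained cells before FACS sorting into low and high (top ~1%) gates on anti-HA and streptavidin fluorescence. Each clone's polyreactivity label reflects its gate of origin.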

Sequence | polyreactivity (PSR sort gate)
QVQLVESGGGLVQAGGSLRLSCAASGFIFYRNTMGWYRQAPGKEREFVAAIRWRGGSTYYADSVKGRFTISRDNAKNTVYLQMNSLKPEDTAVYYCAAGTPWSVEGSYVTYPWNRYYYWGQGTQVTVSS | high polyreactivity
QVQLVESGGGLVQAGGSLRLSCAATGLTFKENVMGWYRQAPGKERELVAAISTGASTYYADSVNGRFTISRDNAKNTVYLQMNSLKPEDTAVYYCAKRVTPWYGYWGQGTQVTVSS | high polyreactivity
QVQLVESGGGLLQAGGSLRLSCAASGRIGRYAMGCYRQAPGKERQLVAVITSGDSTYYADSVKGRFTISRDNAKNTVYLQMNSLKPEESPVESCAADSYRRWGNLFTGNEYDSWGQGTQVTVSS | low polyreactivity
QVQLVESGGGLVQAGGSLRLSCAASGSIIGVNAMGWYRQAPGKERELVAAISSTGGSTYYADSVKGRFTISRDNAKNTVYLQMNSLKPEDTAVYYCNTDYSKSIGDGYAGFDYWGQGTQVTVSS | low polyreactivity
QVHLVESGGGLVQAGGSLRLSCAASGFIFDPYGMGWYRQAPGKERELVAAISSRVGSTYYADSVKGRFTISRDNAKNTVYLQLNSLKPEDTAVYYCAADNDGVGYWVYEEMDYWGQGTQVTVSS | low polyreactivity
QVQLVESGGGLFKAGGSLRLSCAASGSTLVTYAKGWYRQAPGKERELVAAISWRGGSTYYADSVKGRYTISRDNAKNTVYLQMNSLKPEDTEVYYCNKMRAYKESETYYFWGQGTQVTVSS | low polyreactivity
QVQLVESGGCLVQAGGSLRLSCAASGFIFCGNARGGYIPAPGKERELVAVITRSGGSTYADSVKGRFTISRDNAKNTVYLQMNSLKPEVTAVYYCAADQQTWWQYSLINEYDYWGQGTQVTVSS | low polyreactivity
QVHLVESGGGLDQAGGSLRLSSAASGFTFQKYAMGWYRQAPGTERELVAAISSSGGRTYYADSLNGRFTISRDNAKITVYLQMNSLKPEDTAVYYCAVRGSYRGWYDYWGQGTQVTVSS | high polyreactivity
QVQLVESGGGLVQAGGSLRLSCAASGSIFPGNAKGWYRQAPGKERELVASINWSGGSTYYADSVKGRVTISRDNAKNTVYVQMNSLKPEDTAGYYCNARAFRQGHVEYDYWGQGTQVTVSS | low polyreactivity
QVQLVESGGGLVQAGGSLRLSSAASGSIFSIYAMGWYRQAPGKERELGAAITWSGGSTYYADSVKGRFTISRDNAKNTVYFQMNSLKPEDTAVYYCAAEIWFYYGGRKQRGGYWGQGTQVTVSS | high polyreactivity
QVQLVESGGGLVQAGGSLRLSCAASGLIFSSYAMGWYRQAPGKERELVAAISRSGGRTYYADSVKGRFTISRDNAKNTVYLQMNSLKPEDTAVYYCAADRFRSGLDRPEMDYWGQGTQVTVSS | high polyreactivity
QVQLVESGGGLVQAGGSLRLSCAASGSTFDYYAMGWYRQAPGKERELVAAISRTGGRTYYADSVKGRFTISRDNEKNSVYLQMHSLKPEESAVYYCNSVTRIGGGDYDYWGQGTQVTVSS | low polyreactivity
QVQLVESGGGLVQAGGSLRLSCAASGSIFSRYAMGWYRQAPGKERELVAGISQRGGSTNYADSVKGRFTISRDNAKNTVYLQMNSLKPEDTAVYYCAARRITVWGYNPAYGYRFDYWGQGTQVTVSS | high polyreactivity
QVQLVESGGGLVQAGGSLRLSCAASGFIFRYYAMGWYRQEPGKERELVAAIDYSGGSTNYADSVKGRFTISRDNAKNTVYLQMNSLKPEDTAVYYCNAEYTWHRGYDYWGQGTQVTVSS | low polyreactivity
QVHLVESGGGLVQAGGSLRLSCAASGFTFTLYAMGWYRQAPGKERELVAAIYFSGGNTYYADSVKGRFTISRDNAKNTVYLQMNSLKPEDTAVYYCAAEYYPSASYYYGWYTIFWLITRDDYYWGQGTQVTVSS | high polyreactivity
QVQLVESGGGLVQAGCSLRLSCAASGRTLFKYAMGWYRQAPGKERELVAVISWGGGITYYADSVKGRFTISRDNAKNTVYLKMNSLKPEDTAVYYCATDSHARFYRYYWGQGTQVTVSS | low polyreactivity

Sequence | polyreactivity (PSR sort gate)
QVQLVESGGCLVQAGGSLRLSCAASGITFRYYAMGWYRQAPGKERELVATISYSGGTTYYAESVKGRFTISRDNAKNTVYLQMNSLKPEDTAVYYCKAVYRYKYGYRDYDYWGQGSQVTVSS | high polyreactivity
QVQLVESGGGLVQAGGSLRLSCAASGSIFSWNARGCYRQAPGKERELVAGITWSGGGTSYADSVKGRFTISRDNAKNTVYLQMNSLKPEDTAVYYCAKEWIFDFNYWGQGTQVTVSS | low polyreactivity
QVQLVESGGGLVQAGGSLRLSCAASGSTFIRNAMGWYRQAPGKERELVAAITTDGSTDYADSVKGRFTISRDNAKNTVYLQMNSLKPEDTAVDYCNAEYRLDALSYDYLGQGTQVTVSS | low polyreactivity
QVQLVESAGGIVQAGGSLRLSCAASGITFPGNAMGWYRPAPGKERELVAAIDCYGGSTYYADTVKGRFTISRDNAKNTVYLQLNSLKPEDTAVYYCATDEYFSYYGYFLDAYWGQGTQVTLSS | low polyreactivity
QVHLVESVGGLVQAGGSLRLSCAASGFILAVYVLGWYRQAPGKDRELVAAISWSGGSTYYADSVKGRFTISRDNAKNTVYLQMNSLKPEATAVYYCNTVAKSPVKYDYWGQGTQVTVSS | high polyreactivity
QVQLVESGGGLVQAGGTLRLSCAASGRTFRNNAMGWYRQAPGKEWELVAAISLRGGSTYYADSVKGRFTISRDNAKNTVYLLMNSLKPEDTAVYYCATRSRGWIAPPWQGSDGYYYWGQGTQVTVSS | low polyreactivity
QVQLVESGGGLVQAGGSLRISCAASGRIFKYYGMGWYRQAPGKERELVAAITRGDSTNYADSVKGRFTISRDNAKNTVYLQMNSLKPEETAVYYCNVGTRRGYDYWGQGTQVTVSS | high polyreactivity
QVQLVESGGGLVQAGGSLRLSCAASGRTFDRNAMGWYRQAPGKEREFVAAISYRGASTYADSVKGRFTISRDNAKNTVYLQMNSLKPEDTAVYYCAARVTYYGTSGYYYWGQGTQVTVSS | high polyreactivity
QVQLVESGGGLVQAGGSLRLSCAASGIIFPRNAMGWYRQAPWKERELVAGISRSGGSTSYADSVKGRFTFSRDNAKNTVYLQMNSLKPEDTAVFYCASRGHPFKKSYGSWGQGTQVTVSS | high polyreactivity
QQQLQESGSGLVQAGGSLRLSCAASGNIFQDWVMGWYRQAPGKERELVAAISPGAITYYADSVKGRFTISRDNAKNTVYLQTNSLKPEDTAVYYCAAYYIVEYLHGYWGQGTRVTVSS | low polyreactivity
QVQHVESGGGLVQAGGSLRLSCAASGSIINNYAMGWYRQPPGKERELVADSTYYADSVKGRFTISRDNAKNTVYLQMNSLKPEVTAVYYCAPDDGGGDPEFYWGQGSQVTVSS | high polyreactivity
QVQLVESGGGLVQAGGSLRLSCAASGFTFYFYAMGWYRQAPGKERELVAAISRGGSTTYADSVKGRFTISRDNAKNTVYLQMNSLKPEDTAVYYCAVGYDIVRYSYSPFYRYDYWGQGTQVTVSS | low polyreactivity
QVQLVESGGGLVQAGGSLRLSCAASGRTFYYYAMGWYRQAPGKERELVAAISKSGGSTYYADSVKGRFTISRDNAKNTVYLQMNSLKPEDTAVYYCAALTTHAPHSYNYWGQGTQVTVSS | low polyreactivity
QVQLVESGGGLVQAGGSLRLSCAASGLTFKYYAMGWYRQAPGKERELVAAISWNGDRTYYADSVKGRFTISRDNAKNTVYLQMNSLKPEDTAVYYCATKFYFSTSIAGGYWGQGTQVTVSS | high polyreactivity
QVQLVESGGGLVQAGGSLRLSCAASGRIFPYYAMGWYRQAPGKERELVATIRGRVGTTYYADSVKGRFTISRDNAKNSVYLEMNSLKPEDTAVYYCNTDNYSPYRYVGLYDYWGQGTQVTVSS | high polyreactivity

— the nanobody polyreactivity screen of Harvey et al. (2022)
